From article PMC5609712 (Molecular cell, 2017)

T1: Mre11, flag-tagged, purified alone (human, UniProt P49959 1-708)
T1 sequence (looked up): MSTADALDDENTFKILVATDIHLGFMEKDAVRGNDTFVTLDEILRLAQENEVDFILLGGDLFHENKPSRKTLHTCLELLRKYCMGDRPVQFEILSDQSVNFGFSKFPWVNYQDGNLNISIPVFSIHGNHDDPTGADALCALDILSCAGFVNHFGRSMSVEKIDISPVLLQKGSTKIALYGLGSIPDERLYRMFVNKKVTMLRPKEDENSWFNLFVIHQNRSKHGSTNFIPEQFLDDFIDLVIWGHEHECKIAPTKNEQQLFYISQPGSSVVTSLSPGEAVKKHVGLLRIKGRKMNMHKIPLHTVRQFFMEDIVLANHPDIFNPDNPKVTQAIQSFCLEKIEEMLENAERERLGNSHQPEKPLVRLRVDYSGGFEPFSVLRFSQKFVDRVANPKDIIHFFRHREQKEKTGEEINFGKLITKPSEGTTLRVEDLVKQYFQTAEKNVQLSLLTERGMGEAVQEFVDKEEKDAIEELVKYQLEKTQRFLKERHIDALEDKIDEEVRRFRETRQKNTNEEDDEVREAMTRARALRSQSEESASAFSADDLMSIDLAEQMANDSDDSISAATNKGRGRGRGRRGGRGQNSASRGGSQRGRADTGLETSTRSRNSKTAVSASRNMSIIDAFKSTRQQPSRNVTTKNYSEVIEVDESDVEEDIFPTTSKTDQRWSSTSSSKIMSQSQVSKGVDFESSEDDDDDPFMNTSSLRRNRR

B1: Exo1(NTD), catalytic Exo1 core, N-terminal domain encoding amino acids 1-352, biotinylated (domain or fragment, human, UniProt Q9UQ84 1-352, looked up)
chain: MGIQGLLQFIKEASEPIHVRKYKGQVVAVDTYCWLHKGAIACAEKLAKGEPTDRYVGFCMKFVNMLLSHGIKPILVFDGCTLPSKKEVERSRRERRQANLLKGKQLLREGKVSEARECFTRSINITHAMAHKVIKAARSQGVDCLVAPYEADAQLAYLNKAGIVQAIITEDSDLLAFGCKKVILKMDQFGNGLEIDQARLGMCRQLGDVFTEEKFRYMCILSGCDYLSSLRGIGLAKACKVLRLANNPDIVKVIKKIGHYLKMNITVPEDYINGFIRANNTFLYQLVFDPIKRKLIPLNAYEDDVDPETLSYAGQYVDDSIALQIALGNKDINTFEQIDDYNPDTAMPAHSR
B2: Nbs1, flag-tagged, purified alone (natural protein, human, UniProt O60934 1-754, looked up)
chain: MWKLLPAAGPAGGEPYRLLTGVEYVVGRKNCAILIENDQSISRNHAVLTANFSVTNLSQTDEIPVLTLKDNSKYGTFVNEEKMQNGFSRTLKSGDGITFGVFGSKFRIEYEPLVACSSCLDVSGKTALNQAILQLGGFTVNNWTEECTHLVMVSVKVTIKTICALICGRPIVKPEYFTEFLKAVESKKQPPQIESFYPPLDEPSIGSKNVDLSGRQERKQIFKGKTFIFLNAKQHKKLSSAVVFGGGEARLITEENEEEHNFFLAPGTCVVDTGITNSQTLIPDCQKKWIQSIMDMLQRQGLRPIPEAEIGLAVIFMTTKNYCDPQGHPSTGLKTTTPGPSLSQGVSVDEKLMPSAPVNTTTYVADTESEQADTWDLSERPKEIKVSKMEQKFRMLSQDAPTVKESCKTSSNNNSMVSNTLAKMRIPNYQLSPTKLPSINKSKDRASQQQQTNSIRNYFQPSTKKRERDEENQEMSSCKSARIETSCSLLEQTQPATPSLWKNKEQHLSENEPVDTNSDNNLFTDTDLKSIVKNSASKSHAAEKLRSNKKREMDDVAIEDEVLEQLFKDTKPELEIDVKVQKQEEDVNVRKRPRMDIETNDTFSDEAVPESSKISQENEIGKKRELKEDSLWSAKEISNNDKLQDDSEMLPKKLLLTEFRSLVIKNSTSRNPSGINDDYGQLKNFKKFKKVTYPGAGKLPHIIGGSDLIAHHARKNTELEEWLRQEMEVQNQHAKEESLADDLFRYNPYLKRRR
B3: Exonuclease 1, biotinylated, full length (enzyme, human, UniProt Q9UQ84 1-846, looked up)
chain: MGIQGLLQFIKEASEPIHVRKYKGQVVAVDTYCWLHKGAIACAEKLAKGEPTDRYVGFCMKFVNMLLSHGIKPILVFDGCTLPSKKEVERSRRERRQANLLKGKQLLREGKVSEARECFTRSINITHAMAHKVIKAARSQGVDCLVAPYEADAQLAYLNKAGIVQAIITEDSDLLAFGCKKVILKMDQFGNGLEIDQARLGMCRQLGDVFTEEKFRYMCILSGCDYLSSLRGIGLAKACKVLRLANNPDIVKVIKKIGHYLKMNITVPEDYINGFIRANNTFLYQLVFDPIKRKLIPLNAYEDDVDPETLSYAGQYVDDSIALQIALGNKDINTFEQIDDYNPDTAMPAHSRSHSWDDKTCQKSANVSSIWHRNYSPRPESGTVSDAPQLKENPSTVGVERVISTKGLNLPRKSSIVKRPRSAELSEDDLLSQYSLSFTKKTKKNSSEGNKSLSFSEVFVPDLVNGPTNKKSVSTPPRTRNKFATFLQRKNEESGAVVVPGTRSRFFCSSDSTDCVSNKVSIQPLDETAVTDKENNLHESEYGDQEGKRLVDTDVARNSSDDIPNNHIPGDHIPDKATVFTDEESYSFESSKFTRTISPPTLGTLRSCFSWSGGLGDFSRTPSPSPSTALQQFRRKSDSPTSLPENNMSDVSQLKSEESSDDESHPLREEACSSQSQESGEFSLQSSNASKLSQCSSKDSDSEESDCNIKLLDSQSDQTSKLRLSHFSKKDTPLRNKVPGLYKSSSADSLSTTKIKPLGPARASGLSKKPASIQKRKHHNAENKPGLQIKLNELWKNFGFKKDSEKLPPCKKPLSPVRDNIQLTPEAEEDIFNKPECGRVQRAIFQ
modifications: biotinylated (co-infected with a BirA virus)

Assays:
Experiment in all cases: pull-down
[1] = target: T1, Mre11, flag-tagged, purified alone
[2] = target: B3
[3] = target: Mre11-Rad50-Nbs1 complex (triple flag on Mre11) (human, UniProt P49959 1-708; Q92878 1-1312; O60934 1-754)
Mre11-Rad50-Nbs1 complex (triple flag on Mre11), sequence (Q92878 whole entry, one chain of several): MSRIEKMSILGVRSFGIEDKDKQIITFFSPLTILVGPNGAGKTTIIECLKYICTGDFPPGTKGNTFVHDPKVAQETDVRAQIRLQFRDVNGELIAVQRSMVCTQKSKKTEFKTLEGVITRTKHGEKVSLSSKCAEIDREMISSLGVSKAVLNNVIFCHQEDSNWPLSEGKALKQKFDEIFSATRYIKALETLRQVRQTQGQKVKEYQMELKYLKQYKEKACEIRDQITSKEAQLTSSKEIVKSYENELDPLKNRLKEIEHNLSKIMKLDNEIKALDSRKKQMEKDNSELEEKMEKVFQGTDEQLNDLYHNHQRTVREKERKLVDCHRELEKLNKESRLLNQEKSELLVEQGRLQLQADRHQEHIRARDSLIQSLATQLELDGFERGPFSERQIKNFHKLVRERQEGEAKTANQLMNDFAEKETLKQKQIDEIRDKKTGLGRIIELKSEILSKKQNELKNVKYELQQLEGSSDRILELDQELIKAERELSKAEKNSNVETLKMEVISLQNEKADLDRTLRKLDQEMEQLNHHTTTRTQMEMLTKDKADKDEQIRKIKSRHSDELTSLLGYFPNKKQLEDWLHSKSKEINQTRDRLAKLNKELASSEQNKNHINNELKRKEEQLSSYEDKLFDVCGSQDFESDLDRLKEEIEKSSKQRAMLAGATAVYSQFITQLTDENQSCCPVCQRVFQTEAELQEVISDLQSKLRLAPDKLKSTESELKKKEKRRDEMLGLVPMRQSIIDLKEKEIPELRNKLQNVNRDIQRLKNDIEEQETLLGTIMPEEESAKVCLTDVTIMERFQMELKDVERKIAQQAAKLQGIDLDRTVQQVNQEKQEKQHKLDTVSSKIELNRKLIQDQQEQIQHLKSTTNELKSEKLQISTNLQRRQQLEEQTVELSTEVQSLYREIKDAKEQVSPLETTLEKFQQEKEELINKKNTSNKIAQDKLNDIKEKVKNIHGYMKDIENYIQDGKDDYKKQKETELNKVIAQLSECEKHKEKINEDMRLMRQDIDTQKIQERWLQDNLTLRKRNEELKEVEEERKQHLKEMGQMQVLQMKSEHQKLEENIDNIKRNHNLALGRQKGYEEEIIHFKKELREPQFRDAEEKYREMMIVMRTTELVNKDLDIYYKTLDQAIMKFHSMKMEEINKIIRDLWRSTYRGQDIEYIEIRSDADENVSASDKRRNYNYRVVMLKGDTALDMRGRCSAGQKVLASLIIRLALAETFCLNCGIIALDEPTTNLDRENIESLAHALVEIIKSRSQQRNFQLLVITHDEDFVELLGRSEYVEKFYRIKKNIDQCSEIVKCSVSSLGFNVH

Binder: B1
binding result [1]: binds

Binder: B2
binding result [2]: binds

Binder: B3
binding result [3]: binds
